Test results taken from US20240268361A1.

What was measured:
[1] = biological target: mouse TFR1 (NP_035768.1) (mouse) (UniProt Q62351); assay: flow cytometry, C57BL/6 wild-type bone marrow erythroid cells stained with APC anti-human CD71
[2] = biological target: mouse TFR1 (NP_035768.1) (mouse) (UniProt Q62351); assay: flow cytometry, C57BL/6 wild-type mouse B cells stained with APC anti-human CD71
[3] = biological target: humanized TFR1 protein (engineered mouse TFR1 after humanization) (chimeric mouse/human) (UniProt P02786); assay: flow cytometry, bone marrow erythroid cells of TFR1 gene humanized homozygous mouse stained with APC anti-human CD71
UniProt P02786, sequence (P02786 other isoform, or with tags, fused parts or gaps mutant): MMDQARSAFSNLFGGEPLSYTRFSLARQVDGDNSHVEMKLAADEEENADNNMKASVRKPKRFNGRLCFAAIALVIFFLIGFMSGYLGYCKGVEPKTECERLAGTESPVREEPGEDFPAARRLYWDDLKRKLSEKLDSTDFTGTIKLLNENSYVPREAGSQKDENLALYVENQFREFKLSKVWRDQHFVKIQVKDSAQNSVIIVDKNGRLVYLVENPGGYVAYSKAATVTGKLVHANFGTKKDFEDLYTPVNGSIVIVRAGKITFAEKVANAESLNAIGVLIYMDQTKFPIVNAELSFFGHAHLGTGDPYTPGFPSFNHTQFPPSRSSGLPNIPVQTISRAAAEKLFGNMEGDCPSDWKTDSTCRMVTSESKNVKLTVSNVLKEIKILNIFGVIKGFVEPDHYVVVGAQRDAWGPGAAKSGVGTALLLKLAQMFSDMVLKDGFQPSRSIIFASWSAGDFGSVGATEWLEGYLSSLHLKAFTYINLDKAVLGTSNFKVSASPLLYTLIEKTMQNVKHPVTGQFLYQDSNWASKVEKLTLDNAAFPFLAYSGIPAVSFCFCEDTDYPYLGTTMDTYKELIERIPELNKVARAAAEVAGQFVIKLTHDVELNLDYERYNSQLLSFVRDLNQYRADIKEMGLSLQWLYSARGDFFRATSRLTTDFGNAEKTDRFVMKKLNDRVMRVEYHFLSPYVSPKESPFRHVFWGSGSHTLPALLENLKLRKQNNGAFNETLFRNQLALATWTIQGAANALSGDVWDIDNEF

[4] = biological target: humanized TFR1 protein (engineered mouse TFR1 after humanization) (chimeric mouse/human) (UniProt P02786); assay: flow cytometry, B cells of TFR1 gene humanized heterozygous mouse (carry both mouse and humanized TFR1) stained with APC anti-human CD71
[5] = biological target: mouse TFR1 (NP_035768.1) (mouse) (UniProt Q62351); assay: flow cytometry, B cells of TFR1 gene humanized heterozygous mouse (carry both mouse and humanized TFR1) stained with PE anti-mouse CD71
[6] = biological target: mouse TFR1 (NP_035768.1) (mouse) (UniProt Q62351); assay: flow cytometry, C57BL/6 wild-type mouse B cells stained with PE anti-mouse CD71
[7] = biological target: humanized TFR1 protein (engineered mouse TFR1 after humanization) (chimeric mouse/human) (UniProt P02786); assay: flow cytometry, bone marrow erythroid cells of TFR1 gene humanized homozygous mouse stained with PE anti-mouse CD71
[8] = biological target: mouse TFR1 (NP_035768.1) (mouse) (UniProt Q62351); assay: flow cytometry, C57BL/6 wild-type bone marrow erythroid cells stained with PE anti-mouse CD71

UniProt Q62351, sequence (Q62351 whole entry): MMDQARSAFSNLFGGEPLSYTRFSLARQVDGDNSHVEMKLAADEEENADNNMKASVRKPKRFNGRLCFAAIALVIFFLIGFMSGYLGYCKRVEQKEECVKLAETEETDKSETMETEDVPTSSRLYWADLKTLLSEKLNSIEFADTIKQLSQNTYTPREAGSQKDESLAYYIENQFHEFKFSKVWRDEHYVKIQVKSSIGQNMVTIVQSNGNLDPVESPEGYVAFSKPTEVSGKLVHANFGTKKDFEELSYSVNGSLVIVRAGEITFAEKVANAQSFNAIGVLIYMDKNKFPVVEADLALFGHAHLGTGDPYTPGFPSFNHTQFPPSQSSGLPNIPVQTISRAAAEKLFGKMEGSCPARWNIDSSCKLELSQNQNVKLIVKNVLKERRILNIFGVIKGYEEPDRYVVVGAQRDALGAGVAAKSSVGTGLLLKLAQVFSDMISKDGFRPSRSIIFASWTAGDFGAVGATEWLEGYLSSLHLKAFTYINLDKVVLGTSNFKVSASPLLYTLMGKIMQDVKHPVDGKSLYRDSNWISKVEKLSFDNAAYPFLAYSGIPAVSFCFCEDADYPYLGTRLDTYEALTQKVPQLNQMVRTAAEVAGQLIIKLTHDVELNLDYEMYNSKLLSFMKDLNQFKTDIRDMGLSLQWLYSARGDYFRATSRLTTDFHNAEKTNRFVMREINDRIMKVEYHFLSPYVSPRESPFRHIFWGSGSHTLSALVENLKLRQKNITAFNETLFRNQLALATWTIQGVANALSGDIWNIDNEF

Row | percent of erythroid cells positive [1] [%] | percent of B cells positive [2] [%] | percent of erythroid cells positive [3] [%] | percent of B cells positive [4] [%] | percent of B cells positive [5] [%] | percent of B cells positive [6] [%] | percent of erythroid cells positive [7] [%] | percent of erythroid cells positive [8] [%] | Substance
1 | 0.087 | 0.2 | 10.1 | 11.3 | – | – | – | – | APC anti-human CD71 Antibody (BioLegend, Catalog number: 334107)
2 | – | – | – | – | 32.9 | 50.6 | 0.04 | 14.2 | PE anti-mouse CD71 Antibody (BioLegend, Catalog number: 113807)
